Legend:
[1] = system: T1, AdhR-DBD (Clostridium beijerinckii), ORF:f910ab61; assay: EMSA; details: Not stated in the material; EMSA as in Zhang et al., 2014, with Cy5-labelled DNA
T1 sequence: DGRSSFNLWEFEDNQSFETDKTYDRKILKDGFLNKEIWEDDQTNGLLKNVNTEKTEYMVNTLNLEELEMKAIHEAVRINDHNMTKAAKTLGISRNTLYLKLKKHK

[2] = system: T2, SigL (sigma-54) (Clostridium beijerinckii), ORF:07123114; assay: EMSA; details: Not stated in the material; EMSA as in Zhang et al., 2014, with Cy5-labelled DNA
T2 sequence: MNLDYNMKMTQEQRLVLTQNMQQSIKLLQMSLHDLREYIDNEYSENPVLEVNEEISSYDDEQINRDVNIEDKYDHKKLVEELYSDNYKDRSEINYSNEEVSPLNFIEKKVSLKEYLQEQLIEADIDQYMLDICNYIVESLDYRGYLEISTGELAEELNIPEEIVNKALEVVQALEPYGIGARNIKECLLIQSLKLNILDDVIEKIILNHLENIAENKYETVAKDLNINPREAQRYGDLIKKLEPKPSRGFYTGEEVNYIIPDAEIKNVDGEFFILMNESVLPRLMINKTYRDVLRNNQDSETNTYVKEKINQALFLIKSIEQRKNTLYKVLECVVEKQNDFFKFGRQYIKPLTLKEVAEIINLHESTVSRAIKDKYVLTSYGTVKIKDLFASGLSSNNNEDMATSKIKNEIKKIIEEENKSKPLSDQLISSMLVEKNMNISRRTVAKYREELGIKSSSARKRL

AGCCAGTGGCGATAAGTTAAATAAATAAACTATCATGAATCAAAAATTAACAATGTCTAAACTTAAAAAATGCAAAAAAATATATGTCCTAAAAGCATACAGTGTAATAAAACTGAACATTTTATTTATAAATTGTATTTTTTTAATACAGTAAATTTGCATTAGAAAAACTATATTGTTAATAATTAGATTATAAAATTTCAATAAATGGGGAGACTTATCGCCACTGGCT (double strand) [adhA2 promoter UAS fragment]
binding [1]: binds

AGCCAGTGGCGATAAGTTTTAACCTCTCCTTGGATATTTTTTTTACTAGCATTCATCTATTACACTATTATATAAAGCAAGTTTTATACCAATATTATATTTATACATAAATAAATATAAATCATCTCATAATCGCACAATTCATGAATCGAAGTGTGCAACTTTAAAAAAATAGTGTGTAATTTAACTTACACACTGCCTTATCGCCACTGGCT (double strand) [adhA2 promoter -24/-12 fragment]
binding [2]: binds

AGCCAGTGGCGATAAGAACAAAAAACTCGTAATTCCTCAGAAATATTATATTTAAAGGTTTTAAATTAAGTTATTAAATATATATATAATAAGTTATACATAAATTGATTGTTAAGCATATACTCATTTATATAAATAATTTTTAACAAAGATATGTCCTAAAATAATACAGTATAAATTTAATACAGCGTAATATTTTAGGACATGCTTTATAATCTTATCGCCACTGGCT (double strand) [adhA1 promoter UAS fragment]
binding [1]: binds

AGCCAGTGGCGATAAGAAAGTAAAACACATAATAATTGTTTTTAAAGTGTTTTATTATCCTCAAAAGTGCATAAATGCTACGATTGAACTCATGATCACATTTTTATTTCTGCATCAAAAACTTGGCACGGTTATTGCTTTATATATAAGCATAAGAGAAACAAAACAAAATTATATAAAGTATAAAAACAAAAAGTATTAAAAGGAGAGAGCGAACTTATCGCCACTGGCT (double strand) [adhA1 promoter -24/-12 fragment]
binding [2]: binds
